Reference: patent publication US20070286859A1

Biological target: FcγRIIIa on human PBMCs expressing heterozygous V158/F158 FcγRIIIa (human) (UniProt P08637)
Assay: cell-based or functional assay

Sequence of FcγRIIIa on human PBMCs expressing heterozygous V158/F158 FcγRIIIa (human) (P08637 17-254): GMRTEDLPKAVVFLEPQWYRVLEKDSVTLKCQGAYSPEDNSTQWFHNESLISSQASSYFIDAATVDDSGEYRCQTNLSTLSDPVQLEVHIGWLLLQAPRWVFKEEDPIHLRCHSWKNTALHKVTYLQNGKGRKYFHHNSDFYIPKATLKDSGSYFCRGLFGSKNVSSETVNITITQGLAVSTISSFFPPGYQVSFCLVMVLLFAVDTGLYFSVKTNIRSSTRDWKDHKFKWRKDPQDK

Substance	ADCC EC50	ADCC Fold WT	ADCC log(EC50)
S239D/I332E alemtuzumab (antibody)	3 ng/mL	3.3 fold	0.49
V264I/I332E alemtuzumab (antibody)	4 ng/mL	–	0.6
